The results in this text go back to patent US20230398182A1 (ACCELERON PHARMA, published 2023).

The target of this assay is T1, hTβRII (G4S)2-hFc (human).
T1 construct: 70 lacks the C-terminal lysine; Expressed in CHO cells
In words: SPR (Biacore), in vitro. In general terms: SPR reads the build-up and loss of mass on a sensor chip optically.

T1 sequence (chain, as listed by the source limits assumed): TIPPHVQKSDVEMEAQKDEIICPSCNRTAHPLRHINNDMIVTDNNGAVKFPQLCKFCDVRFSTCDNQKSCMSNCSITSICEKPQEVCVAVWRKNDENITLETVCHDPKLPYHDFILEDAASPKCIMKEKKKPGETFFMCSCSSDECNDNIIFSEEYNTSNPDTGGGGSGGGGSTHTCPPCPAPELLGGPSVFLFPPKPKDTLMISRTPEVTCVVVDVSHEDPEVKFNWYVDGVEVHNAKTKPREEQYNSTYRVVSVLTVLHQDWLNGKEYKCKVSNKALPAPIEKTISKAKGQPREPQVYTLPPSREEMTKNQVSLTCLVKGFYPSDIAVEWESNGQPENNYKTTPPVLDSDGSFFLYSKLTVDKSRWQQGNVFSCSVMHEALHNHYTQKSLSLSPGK

B1: Human TGFβ2 (ligand, UniProt P61812 303-414, looked up)
chain: ALDAAYCFRNVQDNCCLRPLYIDFKRDLGWKWIHEPKGYNANFCAGACPYLWSSDTQHSRVLSLYNTINPEASASPCCVSQDLEPLTILYYIGKTPKIEQLSNMIVKSCKCS
Turning to B1, the binding result is “binds”.
